Assay results reported in PMC10705692, “Structural dynamics of GluK2 kainate receptors in apo and partial agonist bound states” (Research Square, 2023).

Biological target: the molecule itself
Assay: cryo-EM structure; purified GluK2 EM in DDM micelles without ligand (apo; residual glutamate washed out on Strep-Tactin), 50 mM Tris-Cl pH 8.0, 150 mM NaCl, 1 mM DDM, ~4 mg/ml; single-particle cryo-EM, C2 imposed, 3.0 Å

B1: full-length rat GluK2 KAR, cryo-EM construct (GluK2 EM) (receptor, UniProt P42260 32-908, looked up)
chain: TTHVLRFGGIFEYVESGPMGAEELAFRFAVNTINRNRTLLPNTTLTYDTQKINLYDSFEASKKACDQLSLGVAAIFGPSHSSSANAVQSICNALGVPHIQTRWKHQVSDNKDSFYVSLYPDFSSLSRAILDLVQFFKWKTVTVVYDDSTGLIRLQELIKAPSRYNLRLKIRQLPADTKDAKPLLKEMKRGKEFHVIFDCSHEMAAGILKQALAMGMMTEYYHYIFTTLDLFALDVEPYRYSGVNMTGFRILNTENTQVSSIIEKWSMERLQAPPKPDSGLLDGFMTTDAALMYDAVHVVSVAVQQFPQMTVSSLQCNRHKPWRFGTRFMSLIKEAHWEGLTGRITFNKTNGLRTDFDLDVISLKEEGLEKIGTWDPASGLNMTESQKGKPANITDSLSNRSLIVTTILEEPYVLFKKSDKPLYGNDRFEGYCIDLLRELSTILGFTYEIRLVEDGKYGAQDDVNGQWNGMVRELIDHKADLAVAPLAITYVREKVIDFSKPFMTLGISILYRKPNGTNPGVFSFLNPLSPDIWMYVLLAYLGVSVVLFVIARFSPYEWYNPHPSNPDSDVVENNFTLLNSFWFGVGALMQQGSELMPKALSTRIVGGIWWFFTLIIISSYTANLAAFLTVERMESPIDSADDLAKQTKIEYGAVEDGATMTFFKKSKISTYDKMWAFMSSRRQSVLVKSNEEGIQRVLTSDYAFLMESTTIEFVTQRNCNLTQIGGLIDSKGYGVGTPMGSPYRDKITIAILQLQEEGKLHMMKEKWWRGNGCPEEESKEASALGVQNIGGIFIVLAAGLVLSVFVAVGEFLYKSKKNAQLEKRSFCSAMVEELRMSLKCQRRLKHKPQAPVIVKTEEVINMHTFNDRRLPGKETMA
modifications: N-glycosylation at Asn 67, 73, 275, 378, 412, 423, 430, 546 and 751 (LC-MS/MS of the purified protein)
notes: Glutamate receptor ionotropic, kainate 2 (GluK2), rat, full length; RNA-edited at position 567 (I to V), with C576V and C595S; followed by a human rhinovirus 3C protease site and a Twin-Strep tag at the C-terminus; Homotetramer (subunits A-D); No cleavage of the 3C site is described; also called homomeric rat GluK2; GRIK2_RAT; source: Sf9 insect cells (baculovirus, EarlyBac), solubilised in DDM, …
stoichiometry N: 4
